# Source: publication doi:10.1101/306175
# How the values were obtained:
# [1] = molecular target: Pol β "wild-type" (unlabelled) (UniProt P06746 1-335, C239S;C267S;V303C); test: single-molecule FRET titration
# [2] = molecular target: DNA polymerase I Klenow Fragment (KF) (E. coli, UniProt P00582 324-928, D424A); test: single-molecule FRET
binder,measurement,setting,value
"1-nt gapped DNA bending sensor (Cy3B/Cy5) (dsDNA, primer 3' dideoxy-terminated (printed TCCH); 5'-phosphate on downstream strand) DNA 1: CCTCATTCTTCGTCCCATTACCATACATCC DNA 2: CCACGAAGCAGGCTCTACTCTCTAAGGATGTATGGTAATGGGACGAAGAATGAGG DNA 3: TAGAGAGTAGAGCCTGCTTCGTGG",Kd,[1],19 ± 2 nM
same,binding result,[2],binds
